Results as given in ChEMBL document CHEMBL4602687, “Dual Binding to Orthosteric and Allosteric Sites Enhances the Anticancer Activity of a TRAP1-Targeting Drug” (J Med Chem, 2020).

Key:
[1] = compound: CC(C)NCCCn1c(Sc2cc3c(cc2I)OCO3)nc2c(N)ncnc21; assay: (§1) Competitive inhibition of recombinant wild-type human TRAP1 ATPase activity expressed in Escherichia coli BL21 (DE3) assessed as substrate Kcat at 5 uM preincubated for 0.5 hrs followed by varying levels of ATP addition and measured after 3 hrs using PiColorLock Gold reagent by colorimetric assay-based Lineweaver-Burk plot analysis (reference value: 0.87 +/- 0.01 10^-2 secs)
[2] = substrate: Nc1ncnc2c1nc(Sc1cc3c(cc1I)OCO3)n2CCCCCCCCCC[P+](c1ccccc1)(c1ccccc1)c1ccccc1; assay: as §1, with “Allosteric modulation” for “Competitive inhibition”, “Km” for “Kcat”, “84.42” for “0.87”, “3.84 uM)” for “0.01 10^-2 secs)”
[3] = compound: CC(C)NCCCn1c(Sc2cc3c(cc2I)OCO3)nc2c(N)ncnc21; assay: as §1, with “Km” for “Kcat”, “84.42” for “0.87”, “3.84 uM)” for “0.01 10^-2 secs)”
[4] = substrate: Nc1ncnc2c1nc(Sc1cc3c(cc1I)OCO3)n2CCCCCCCCCC[P+](c1ccccc1)(c1ccccc1)c1ccccc1; assay: (§2) Allosteric modulation of recombinant wild-type human TRAP1 ATPase activity expressed in Escherichia coli BL21 (DE3) assessed as ratio of substrate Kcat to Km at 5 uM preincubated for 0.5 hrs followed by varying levels of ATP addition and measured after 3 hrs using PiColorLock Gold reagent by colorimetric assay-based Lineweaver-Burk plot analysis (reference value: 10.3 +/- 0.54 10^-5 /s/uM)
[5] = substrate: Nc1ncnc2c1nc(Sc1cc3c(cc1I)OCO3)n2CCCCCCCCCC[P+](c1ccccc1)(c1ccccc1)c1ccccc1; assay: as §1, with “Allosteric modulation” for “Competitive inhibition”
[6] = compound: CC(C)NCCCn1c(Sc2cc3c(cc2I)OCO3)nc2c(N)ncnc21; assay: as §2, with “Competitive inhibition” for “Allosteric modulation”

B1: Heat shock protein 75 kDa, mitochondrial (Homo sapiens), Q12931 (protein)
chain: MARELRALLLWGRRLRPLLRAPALAAVPGGKPILCPRRTTAQLGPRRNPAWSLQAGRLFSTQTAEDKEEPLHSIISSTESVQGSTSKHEFQAETKKLLDIVARSLYSEKEVFIRELISNASDALEKLRHKLVSDGQALPEMEIHLQTNAEKGTITIQDTGIGMTQEELVSNLGTIARSGSKAFLDALQNQAEASSKIIGQFGVGFYSAFMVADRVEVYSRSAAPGSLGYQWLSDGSGVFEIAEASGVRTGTKIIIHLKSDCKEFSSEARVRDVVTKYSNFVSFPLYLNGRRMNTLQAIWMMDPKDVREWQHEEFYRYVAQAHDKPRYTLHYKTDAPLNIRSIFYVPDMKPSMFDVSRELGSSVALYSRKVLIQTKATDILPKWLRFIRGVVDSEDIPLNLSRELLQESALIRKLRDVLQQRLIKFFIDQSKKDAEKYAKFFEDYGLFMREGIVTATEQEVKEDIAKLLRYESSALPSGQLTSLSEYASRMRAGTRNIYYLCAPNRHLAEHSPYYEAMKKKDTEVLFCFEQFDELTLLHLREFDKKKLISVETDIVVDHYKEEKFEDRSPAAECLSEKETEELMAWMRNVLGSRVTNVKVTLRLDTHPAMVTVLEMGAARHFLRMQQLAKTQEERAQLLQPTLEINPRHALIKKLNQLRASEPGLAQLLVDQIYENAMIAAGLVDDPRAMVGRLNELLVKALERH
Question: Which results are given for B1?
Answer: kcat [1]: 0.8 ×10⁻² /s; Km [2]: 506 µM; Km [3]: 1050 µM; kcat/Km [4]: 4.99 ×10⁻⁵ /s/µM; kcat [5]: 2.51 ×10⁻² /s; kcat/Km [6]: 0.76 ×10⁻⁵ /s/µM
